Laboratory results as given in publication PMC13486833, “Engineered HMGB1 construct with tandem Box B domains promotes tissue regeneration without potential for inflammation” (iScience, 2026).

Target: T1, RAGE-Fc chimera protein (UniProt Q15109 23-342)
T1 construct: RAGE, recombinant Fc chimera BioTechne Cat# 1145-RG; As far as I recall the catalogue product is the human RAGE extracellular domain fused to human IgG1 Fc; source: bought: BioTechne
Experiment: BLI; RAGE-Fc (15 μg/mL) immobilised on anti-IgG (AHC) biosensors; HMGB1 constructs 0–25 μM in solution; 200 s association/dissociation
Conditions: both partners purified

T1 sequence (Q15109 23-342, change not shown): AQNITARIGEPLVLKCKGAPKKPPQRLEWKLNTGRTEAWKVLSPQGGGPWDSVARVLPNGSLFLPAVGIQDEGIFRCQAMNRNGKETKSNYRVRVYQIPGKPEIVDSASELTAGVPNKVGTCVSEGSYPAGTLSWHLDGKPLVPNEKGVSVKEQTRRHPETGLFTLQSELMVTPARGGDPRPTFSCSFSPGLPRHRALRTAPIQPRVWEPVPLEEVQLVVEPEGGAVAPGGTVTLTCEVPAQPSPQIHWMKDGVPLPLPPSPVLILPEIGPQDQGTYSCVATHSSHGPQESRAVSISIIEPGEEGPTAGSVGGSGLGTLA

Kd: 5.5 µM
koff: 0.206 s⁻¹
B1: dBB12L (FR-HMGB1 89–174::89–174) (other)
chain: KDPNAPKRPPSAFFLFCSEYRPKIKGEHPGLSIGDVAKKLGEMWNNTAADDKQPYEKKAAKLKEKYEKDIAAYRAKGKPDAAKKGVKDPNAPKRPPSAFFLFCSEYRPKIKGEHPGLSIGDVAKKLGEMWNNTAADDKQPYEKKAAKLKEKYEKDIAAYRAKGKPDAAKKGV
modifications: fully reduced Cys105 (printed numbering) in both copies; printed n = entry n+1 (C22/C44/C105 = C23/C45/C106 in P09429); direct tandem fusion, with native flanks acting as the linker
